{"source": "the supplement of paper PMC10567573", "parents": {"B1": {"name": "INTS3 (parent)", "chain": "FSDDEEDLNSKGKKREFRFHPIKE"}}, "data": [{"variants_of": "B1", "experiment": "protein stability index of a GFP-peptide fusion (GPS, HEK-293T) (PSI 1-6); higher = more stable", "conditions": "c terminus: a fixed tail appended", "values": [{"variant": "FSDDEEDLNSKGKKREVRFHPIKE", "protein stability index": 4.85}, {"variant": "FSDDEEDDNSKGKKREFRFHPIKE", "protein stability index": 3.26}, {"variant": "FSDDEEDKNSKGKKREFRFHPIKE", "protein stability index": 2.78}, {"variant": "FSDDEEDSNSKGKKREFRFHPIKE", "protein stability index": 3.37}, {"variant": "FSDDEEDVNSKGKKREFRFHPIKE", "protein stability index": 2.99}, {"variant": "FSDDEEDMNSKGKKREFRFHPIKE", "protein stability index": 2.78}, {"variant": "FTDDEEDLNSKGKKREFRFHPIKE", "protein stability index": 2.88}, {"variant": "FYDDEEDLNSKGKKREFRFHPIKE", "protein stability index": 2.43}, {"variant": "FVDDEEDLNSKGKKREFRFHPIKE", "protein stability index": 2.2}, {"variant": "FGDDEEDLNSKGKKREFRFHPIKE", "protein stability index": 3.22}, {"variant": "FQDDEEDLNSKGKKREFRFHPIKE", "protein stability index": 2.5}, {"variant": "FLDDEEDLNSKGKKREFRFHPIKE", "protein stability index": 2.47}, {"variant": "FDDDEEDLNSKGKKREFRFHPIKE", "protein stability index": 3.34}, {"variant": "FSDDEEDLNSKGKKREFRFHPIKN", "protein stability index": 2.69}, {"variant": "FSDDEEDLNSKGKKREFRFHPIKC", "protein stability index": 2.18}, {"variant": "FSDDEEDLNSKGKKREFRFHPIKF", "protein stability index": 1.91}, {"variant": "FSDDEEDLNSKGKKREFRFHPIKY", "protein stability index": 2.72}, {"variant": "FSDDEEDLNSKGKKREFRFHPIKT", "protein stability index": 1.81}, {"variant": "FSDDEEDLNSKGKKREFRFHPIKD", "protein stability index": 3.07}, {"variant": "FSDDEEDLNSKGKKREFRFHPIKA", "protein stability index": 2.2}, {"variant": "FSDDEEDLNSKGKKREFRFHPIKV", "protein stability index": 2.07}, {"variant": "QSDDEEDLNSKGKKREFRFHPIKE", "protein stability index": 3}, {"variant": "ESDDEEDLNSKGKKREFRFHPIKE", "protein stability index": 3.36}, {"variant": "RSDDEEDLNSKGKKREFRFHPIKE", "protein stability index": 2.71}, {"variant": "GSDDEEDLNSKGKKREFRFHPIKE", "protein stability index": 2.99}, {"variant": "SSDDEEDLNSKGKKREFRFHPIKE", "protein stability index": 2.32}, {"variant": "ISDDEEDLNSKGKKREFRFHPIKE", "protein stability index": 3.2}, {"variant": "HSDDEEDLNSKGKKREFRFHPIKE", "protein stability index": 2.72}, {"variant": "FSDDEEDLNSKCKKREFRFHPIKE", "protein stability index": 2.13}, {"variant": "FSDDEEDLNSKWKKREFRFHPIKE", "protein stability index": 2.11}, {"variant": "FSDDEEDLNSKVKKREFRFHPIKE", "protein stability index": 2.1}, {"variant": "FSDDEEDLNSKNKKREFRFHPIKE", "protein stability index": 2.83}, {"variant": "FSDDEEDLNSKIKKREFRFHPIKE", "protein stability index": 2.14}, {"variant": "FSDDEEDLNSKKKKREFRFHPIKE", "protein stability index": 1.98}, {"variant": "FSDDEEDLNSKHKKREFRFHPIKE", "protein stability index": 2.58}, {"variant": "FSDDEEDLNSKDKKREFRFHPIKE", "protein stability index": 2.92}, {"variant": "FSDDEEDLNSKSKKREFRFHPIKE", "protein stability index": 2.65}, {"variant": "FSDDEEDLNSKPKKREFRFHPIKE", "protein stability index": 2.98}, {"variant": "FSDDEEDLNSKGKKRHFRFHPIKE", "protein stability index": 3.08}, {"variant": "FSDDEEDLNSKGKKRNFRFHPIKE", "protein stability index": 2.88}, {"variant": "FSDDEEDLNSKGKKRGFRFHPIKE", "protein stability index": 2.41}, {"variant": "FSDDEEDLNSKGKKRLFRFHPIKE", "protein stability index": 3.46}, {"variant": "FSDDEEDLNSKGKKRQFRFHPIKE", "protein stability index": 2.61}, {"variant": "FSDDEEDLNSKGKKRMFRFHPIKE", "protein stability index": 2.74}, {"variant": "FSDDEEDLNSKGKKRPFRFHPIKE", "protein stability index": 2.17}, {"variant": "FSDDEEDLNSKGKKCEFRFHPIKE", "protein stability index": 3.31}, {"variant": "FSDDEEDLNSKGKKEEFRFHPIKE", "protein stability index": 4.63}, {"variant": "FSDDEEDLNSKGKKQEFRFHPIKE", "protein stability index": 3.62}, {"variant": "FSDDEEDLNSKGKKVEFRFHPIKE", "protein stability index": 3.14}, {"variant": "FSDDEEDLNSKGKKDEFRFHPIKE", "protein stability index": 3.94}, {"variant": "FSDDEEDLNSKGKKFEFRFHPIKE", "protein stability index": 2.81}, {"variant": "FSDDEEDLNSKGKKMEFRFHPIKE", "protein stability index": 2.56}, {"variant": "FSDDEEDLNSKGKKLEFRFHPIKE", "protein stability index": 2.53}, {"variant": "FSDDEEDLNSKGKKAEFRFHPIKE", "protein stability index": 3.8}, {"variant": "FSDDEEDLNDKGKKREFRFHPIKE", "protein stability index": 3.64}, {"variant": "FSDDEEDLNPKGKKREFRFHPIKE", "protein stability index": 2.63}, {"variant": "FSDDEEDLNCKGKKREFRFHPIKE", "protein stability index": 3.08}, {"variant": "FSDDEEDLNSKGKKREFIFHPIKE", "protein stability index": 4.55}, {"variant": "FSDDEEDLNSKGKKREFGFHPIKE", "protein stability index": 4.77}, {"variant": "FSDDEEDLNSKGKKREFTFHPIKE", "protein stability index": 4.64}, {"variant": "FSDDEEDLNSKGKKREFQFHPIKE", "protein stability index": 5.2}, {"variant": "FSDDEEDLNSKGKKREFVFHPIKE", "protein stability index": 4.56}, {"variant": "FSDDEEDLNSKGKKREFLFHPIKE", "protein stability index": 4.57}, {"variant": "FSDDEEDLNSKGKKREFRFAPIKE", "protein stability index": 4.58}, {"variant": "FSDDEEDLNSKGKKREFRFVPIKE", "protein stability index": 3.92}, {"variant": "FSDDEEDLNSKGKKREFRFWPIKE", "protein stability index": 4.31}, {"variant": "FSDDEEDLNSKGKKREFRFMPIKE", "protein stability index": 4.83}, {"variant": "FSDDEEDLNSKGKKREFRFYPIKE", "protein stability index": 4.51}, {"variant": "FSDDEEDLNSKGKKREFRFQPIKE", "protein stability index": 4.44}, {"variant": "FSDDEEDLNSKGKSREFRFHPIKE", "protein stability index": 3.79}, {"variant": "FSDDEEDLNSKGKCREFRFHPIKE", "protein stability index": 2.66}, {"variant": "FSDDEEDLNSKGKGREFRFHPIKE", "protein stability index": 2.96}, {"variant": "FSDDEEDLNSKGKWREFRFHPIKE", "protein stability index": 1.53}, {"variant": "FSDDEEDLNSKGKMREFRFHPIKE", "protein stability index": 1.41}, {"variant": "FSDDEEDLNSKGKDREFRFHPIKE", "protein stability index": 3.73}, {"variant": "FSDDEEDLNSKGKLREFRFHPIKE", "protein stability index": 2.11}, {"variant": "FSDDEEDLNSKGKEREFRFHPIKE", "protein stability index": 3.44}, {"variant": "FSDDEEDLNSKGKRREFRFHPIKE", "protein stability index": 2.88}, {"variant": "FSTDEEDLNSKGKKREFRFHPIKE", "protein stability index": 2.9}, {"variant": "FSCDEEDLNSKGKKREFRFHPIKE", "protein stability index": 2.42}, {"variant": "FSIDEEDLNSKGKKREFRFHPIKE", "protein stability index": 2.09}, {"variant": "FSSDEEDLNSKGKKREFRFHPIKE", "protein stability index": 2.55}, {"variant": "FSYDEEDLNSKGKKREFRFHPIKE", "protein stability index": 2.32}, {"variant": "FSEDEEDLNSKGKKREFRFHPIKE", "protein stability index": 2.61}, {"variant": "FSHDEEDLNSKGKKREFRFHPIKE", "protein stability index": 2.69}, {"variant": "FSFDEEDLNSKGKKREFRFHPIKE", "protein stability index": 2.38}, {"variant": "FSWDEEDLNSKGKKREFRFHPIKE", "protein stability index": 2.45}, {"variant": "FSGDEEDLNSKGKKREFRFHPIKE", "protein stability index": 2.85}, {"variant": "FSLDEEDLNSKGKKREFRFHPIKE", "protein stability index": 2.23}, {"variant": "FSDDEEDLNSKGKKREFRFHPIGE", "protein stability index": 3.19}, {"variant": "FSDDEEDLNSKGKKREFRFHPIYE", "protein stability index": 2.91}, {"variant": "FSDDEEDLNSKGKKREFRFHPIIE", "protein stability index": 2.93}, {"variant": "FSDDEEDLNSKGKKREFRFHPILE", "protein stability index": 2.95}, {"variant": "FSDDEEDLNSKGKKREFRFHPICE", "protein stability index": 3.43}]}]}
